Assay: soluble on expression in E. coli; label from the status in PepcDB or PDB records

Sequence	soluble on expression in E. coli
MTDVLPTIELFDGIAEELDNVSLRRDRQSGTRNVLLRFRALKALDRFNSFRSRFSKAIRLTDSEGAIELWPDSSKLVFGGDDGDELDRVEFVVPIDNEDHWQRFMRFMERYAAANDMTYGDRQALEHHHHHH	soluble
MKLNIRAQTAQNQHNNSPIVLVHGLFGSLDNLGVLARDLVNDHNIIQVDMRNHGLSPRDPVMNYPAMAQDLVDTLDAQQIDKATFIGHSMGGKAVMALTALASDRIDKLVAIDIAPVDYHVRRHDEIFAAINAVSESDAQTRQQAAAIMRQHLNEEGVIQFLLKSFVDGEWRFNVPVLWDQYPHIVGWEKIPAWDHPALFIPGGNSPYVSEQYRDDLLAQFPQARAHVIAGAGHWVHAEKPDAVLRAIRRYLND	not soluble
MGSDKIHHHHHHMLTEQPNWLMQRAQLTPERIALIYEDQTVTFAELFAASKRMAEQLAAHSVRKGDTAAILLQNRAEMVYAVHACFLLGVKAVLLNTKLSTHERLFQLEDSGSGFLLTDSSFEKKEYEHIVQTIDVDELMKEAAEEIEIEAYMQMDATATLMYTSGTTGKPKGVQQTFGNHYFSAVSSALNLGITEQDRWLIALPLFHISGLSALFKSVIYGMTVVLHQRFSVSDVLHSINRHEVTMISAVQTMLASLLEETNRCPESIRCILLGGGPAPLPLLEECREKGFPVFQSYGMTETCSQIVTLSPEFSMEKLGSAGKPLFSCEIKIERDGQVCEPYEHGEIMVKGPNVMKSYFNRESANEASFQNGWLKTGDLGYLDNEGFLYVLDRRSDLIISGGENIYPAEVESVLLSHPAVAEAGVSGAEDKKWGKVPHAYLVLHKPVSAGELTDYCKERLAKYKIPAKFFVLDRLPRNASNKLLRNQLKDARKGELL	not soluble
MAHHHHHHMVHWVISQFTTNVGLQQKSSIELLNEANREYESSSPFSVLVQHERAVERLTTAQRGLAASGAGSLARLDRDQLPSWTLRVIDEDCTMCFDNVTYASAVAADAGRSTNKTGHHKQKGLSVFATTSAPLGLMGPMLFAMASVTDDVDVAAELPRWQWVTWSYAQQRRFVHASQSRSTGERPRHLIVLGIPSTDQPMRYPLRDAQRATWLTYREVARTENNFTGALLQLYVFAAAEHDSEDSTHSAVDMVQLAPTVSEYAAATEQHLAVEAGDVNNAPPYLQRRVVLRDGWRDIPRSDDAVWRSPCAGVRTTVVTAASLVAGTSSLAALSAQLSLPVTPAFTAAAQYVCHVSAALWQEALHHRNSLWLDFLTDRKPTTKKKMGMSISWGIPTEVGMSQKTVLWLNYAYTAFPDVPYIMKGDDDMYLKVPQYLSDLRHVRGGWQKPRNLTVTIPHRGVIPPTLAIDDAEECLYRVWWTYSKKIAYGNGVGYILDRRLIQAALNPFDGFNALLMKLLTNPYDYRLEKEYLSLNMQYEDMHIGKQIRDHHDAVERFCPKKRVCYMADRRFRAHQILRPKPVKLTWISVMAHFGMPAIPYYVHYFHKNEFKVAEEAKRLIAQGIDAKTIEENATQRMHEWVASQVPSTLVGLGASFHLDWVRGDPHTAYTVAEEDEVAVYDVRYKLRRRNDVACVLESGKR	not soluble
MGSDKIHHHHHHMLKIDNLTKTLENKKVISGISFSLKPSQIVGLIGRNGVGKTTLFRLISGEYVPDQGRVTSDESADARSEIFYLDSPDNFTNAFTANQLARIFKVSYPQLDIDWFKNLLKTNNLSLNKKLSGMSKGQRGLILAISAITSKSKYIFLDEPLDGLDLIIRDQVKQMLITAVSNSDTSVMIASHNLEELDFLADRIILLKNGKIEKDYLPGEELKTANVAKLQMVIEGELPKVVSECGHILEKRGHLYVVLFKDYNSKVASRIKRTKAQYIEQLPVNSDDIFRATFEEDYRLRQSAGKRTNK	not soluble
MSLSHYDRMKRSSIAPYRRSNDSSNRIDKKTGKKGHGLMSKLKDLVSFGWAQEHHKDNDFSARDTGRERTNVSKGSYAAVPGGFFSSDQSSFILRERSRIMNESTMHSEADTSNAKLADFFAKKGNEPLSEIEMEGVLALMQKSRGVADESSFLGNSSRLLGDISNANASQVLRTGNISTSSALNVPNFKPSTDESRNINAKEVENSTIVSTPLKRKNFDYSSIRSPYRTVIYRFDDSNKKKISSVFDKPESSSQEVDETPKPSNSKPLSNTASALVSLLSDKDAAKESIKPMANPYTSHLTALRKSREDLPSINDKITVPKRRQRSETEDKEEAKITSSNGEAQEDTNIPEGIASRKNEEAQDSFTKYKPMRSSSLRDSVSLAHTESNNEKQMNSPKFVPAPLDKNETKETAKSDLTLTSSDKQSESKPSFSFPVNSTTKSTFMGTKKESTSPAVNSEGHHHHHH	soluble
MLTIGLYNTYDTKKLHEAHIRAIARAAPVAYAYEFHLALIGFPFDSDDPKEVAERVASTTTIGEGGKYLLELAKSNKFHLLDFPKRGFPPQFGEVIATTSKPSKEKVIGSREVAEMALRGKSLMLIIGLGRHGLPKEVFEISKYHLDITDGREISLETCTAIGIIPARIKTLMEALKWK	not soluble
MGSDKIHHHHHHMTRSEAQGRLTGLAPVSVIDIGSNSVRLVVYEGLSRAPAVLFNEKVLCGLGKGLALTGRMHEEGVTRALMALRRFHVLSEQAQAQKLYVLATAAAREAENGPDFIREAEAILGCEIEVLSGEKEALYSAYGVISGFYQPDGIAGDLGGGSLELIDIKDKSCGEGITLPLGGLRLSEQSDGSLEKAATIARKHVKSFAKLLAAGEGRTFYAVGGTWRNIAKLHMEISGYPLHMMQGYELPLEEMLNFLEEVIVSRDSKDPAWQAVSKNRRSLLPFGAIAMREVLRAMKPAKIAFSAQGVREGYLYSLLTEAERESDPLLVAADELAILRARSPEHARELADWSGRTFPVFGIDETEEESRYRQAACLLADISWRAHPDYRGLQALNIIAHSSFVAITHPGRAYIALANYYRFEGLNDNGTTEPLAAMAGERLQELGKLLGGLLRVVYLFSASMPGVVDHLKFRKSDNPDIDLEFVVPHDYCDFAGERLDGRLQQLAKLTGKRLAFVFE	not soluble
MYVQGKIGLDQLAEAERLHATLCREVQQRLDIRLRAHRAVLDELNERLADKLFCNFSVFQSIPDAWAIDQIFPVMPLQRLGEEPTRRAVIQDMTCDSDGRINAYIDRQSIENTLRMHAPAPGEPYLIGFFLVGAYQEILGDMHNLFGDTHSVDVELDGAGGYTFTHTRRGDGADDLLRYVHIDPDELERLEHHHHHH	not soluble
MSAAASMFVRQFFHGTRADLSPGELIVVGYQSNFTTAAPLSWVYFSGTLDAAIWGAELAAGDAPQRIYVVEPTGPFEDDPNLTDKKFPGNPTLSYRSKHPLRIVAEMTKWQGHSPERVQQMKDGLARLSAEGAEIID	not soluble
MGSDKIHHHHHHMSLAVVYSRASMGVQAPLVTIEVHLSNGKPAFTLVGLPEKTVTEAQGRVRSALLNAQFKYPAKRITVNLAPADLPKEGGRFDLPIALGILAASEQINAKKLQQFEFVAELALTGELRGVHGVIPAILAGQKSKRQLIVAQQNANEASLVSQHETFFARNLLEVVQFLNDDSSLPSSTTLCMQSAVDFSPQSNKDLTDIIGQQHAKRALMIAAAGQHNLLFLGPPGTGKTMLASRLTGLLPDMTDQEAIETASVTSLVQNELNFQNWKQRPFRAPHHSASSPALVGGGTIPKPGEISLAHNGVLFLDELPEFERRVLDALRQPLESGEIIISRANAKIQFPARFQLVAAMNPSPTGHYTGIHNRTSPQQVLRYLNRLSGPFLDRFDLSIEVPLLPQGALQNTEDRGETTAQVKEKVLRVREIQLARAGKVNAYLTGKEIERDCKLTEQDALFLENTLTRLGLSVRAYHRILKVARTIADLNGDSDIKQNHLAEALSYRAMDRLLRKLSDQ	not soluble
MGSDKIHHHHHHMRITNTLTGKKEEFVPIQPGVVRMYVCGPTVYDLIHVGNARPALVFDVFRRYLEYRGYRVIMVQNFTDIDDKIINKANQLGVDYKTVADTFIAEYWRDAHALGIRPANFHPRTTDFVEDIVEIIEKLVEKGFAYQTETGVYFDVRKFEKYGELSKKKIEDLIAGARVEVDETKKSPLDFSLWKKAKPGEPCWKSPWGEGRPGWHIECTVMSVKILGESFDIHAGGEDLVFPHHENEKAQAEALTGKVFARYWMHNGMVRFLGDKMSKSTGNIFTVREAVKRYGRDGLRYMILSKHYRSPMDFSEELLQDYSRAVKRVWEILGRYEKSGDIGIPKRNAVYEEYVNRFVEALDDDFNTPVAVSLIFELARNLSKAMDDNDREDALLYYHLIRREFGPVLGLFDLNEEKKEVSSEELLKLLIEVRDVLRKEKRYDLSDRIRDRLREIGIILKDTPSGTEYTVE	not soluble
KRFGWTNELMFLFAPIPWSRLPYHSIGYRASGRSYARKEHKPFRYNGFSPGIGINSCLWWKVSVRDEYIFRIGLNVGYEYMDQLYAYRHFKVNEEKPLSSLSQRLKHIGHIGLNFALSLN	not soluble
MTAGPQAHGHAPQTAGLAALEARLRQDLAWLELPAKPWTLPHALDGQPVLDVAIIGGGMAGLAAATALKHLGIGAVVFDRAPEGYEGPWATTARMETLRSPKQLTGPALGLPALTFRAWFEAQFGADAWETLDKIPRLQWMDYLRWYRRVLQLEVRNAHHVRTVQPRADGAVELTLDTPDAAGQRVLARRVVLATGRDGLGGPAVPAFAHRLPHRWWAHSSDAMDYGALAGKRVGVIGAGASAMDSAATALEAGAASVDLLIRRPDLPRINKGKGAGSPGLVHGHQHLPDAWKWRIRHYINAEQVPPPRGSTLRVSRHPNARFNLGCPVLGVDEHNGALHVTTPKGVFRLDFLIFSTGFRLDWAARPEFSALAPHVRLWRDRYTPRPGEEDAELSDSPDLGPAFELREKTPGQLPGLSRVHCFCYPASLTHGSVSGDIPAISEGARRLAQGIAGLLYQEDIEGHYAAMQAYAEPEIFGDEWTPAPPPQSEPAAAAASPAREAARLEHHHHHH	not soluble
MRESHNVLPPVAPVRPITRTHHGIDFVDNYEWLRDKENPETIQYLEAENAFVEQQTAHLSQLKDNIYHEIKSRVKETDMSVPQRAGDFWYYGRSVEGKSYGYSCRIPVSEGADAWVPPTIPEREPVAGEQIILDANELAEGHEFFALGASTVTTSGRYLAYSVDTEGDERFTLRVKDLATGEHLADEIPDVFYGATWAGEEYLFYQRVDAAWRPDSVWRHKIGTDPATDVQVFHEADERFNTGVGATRSERFLMIESASKITSEIWVLDLDNPTGDFRCVLPRQAGVEYDIDHAVVAGRDTWIVTHNAAGPNFEVGWTPVTDEEISLDSLEVLVPHRDEVRIEGVDTYRDHIVLAYRSGAIGRAAVMQLNADGFGTFEEITFDEELYTIGVGGHPEWDTPVVRMVYVSFTQPSQVFDYWIADGRRTLLKQQEVVGGYNADDYTASRLWVEAHDGVRIPVSLIHRSDLDLSKPNPTLLYGYGSYESSIDPGFSIARLSLMDRGMVFAIAHVRGGGEMGRGWYDTGKTVTKKNTFTDFIAVADHLIEHGVTTSEMLVAEGGSAGGMLMGAVANMAGDRFKAIEAVVPFVDPLTSMLMPELPLTVTEWDEWGDPLHDVDVYNYMASYAPYENIEAKAYPNILAVTSLNDTRVLYVEPAKWIAQLRATATGGQFLLKTEMSAGHGGVSGRYEKWKQTAFEYAWLCHQATGKES	not soluble
MLYLHDIWVNWFEGEENGYNVCHFHEWRKDDQIELLDQVPLLKVSPALFHYIENSLSDLPKPLLDDVHQKAYVRKNHERIQLDYCFVVTDGAGVLAVDTIGYQIPIRKSRLIPRQEQLVYEMAAEAEERDYPLPRYEKEYHILSPAPELMCGLTRKERQLKQLLFMALDQLYSTKNTAQMRYWYTEWAPEKYAAIQKMSFDEAWEQLYNETKYGWSERHEQLCENLIKGQPFFEKLWEMEQEPKVN	soluble
GPGSMSTTSSPDEASCDVEKEGKGISPVTRTGKRFAECALMDLPDKYSSAFPYLRGARLFFFDVVSKLNRIGARNKRVVFVTDYTIGVASKRGHVSRCAKVEDISELICDAQTRALGVRMRSRPFAIVPKDFSRWNCFHEMPVDLLLHATSAAQYEALINVLSFVHHTSTHEALLCRSLKQYETWKASLVLAPDGSRVKKAVQYYAIPVTPSERSTDAATLSATRSQETSASLSAVRAPRQVALLSAGDSASRFTSGPDVSATAPKLRHWSSLGASSSFTPSGVGGHRTALGLSPFSLSPSPAPPLVEFSRDIEAVPTSATRRGVNPLLKADRKAPNAS	not soluble

Source: the DeepSol protein solubility set
